B1: ALKBH7 (parent)
chain: SVICRSLPEGMGPGESGQPPPAC
B2: FCHO1 (parent)
chain: FTSSPSPFSSSSPENVEDSGLDSP

Variants of: B1
Assay: protein stability index of a GFP-peptide fusion (GPS, HEK-293T) (PSI 1-6); higher = more stable
Conditions: c terminus: native
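Also: lentivirally expressed fusions sorted by FACS into six bins by GFP to DsRed ratio, PSI derived from sequencing read proportions per bin multiplied by bin number.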

| Variant | protein stability index |
| --- | --- |
| HVICRSLPEGMGPGESGQPPPAC [S1H] | 1.98 |
| EVICRSLPEGMGPGESGQPPPAC [S1E] | 3.06 |
| IVICRSLPEGMGPGESGQPPPAC [S1I] | 3.78 |
| NVICRSLPEGMGPGESGQPPPAC [S1N] | 1.63 |
| TVICRSLPEGMGPGESGQPPPAC [S1T] | 2.2 |
| DVICRSLPEGMGPGESGQPPPAC [S1D] | 1.87 |
| GVICRSLPEGMGPGESGQPPPAC [S1G] | 2.23 |
| MVICRSLPEGMGPGESGQPPPAC [S1M] | 1.47 |
| PVICRSLPEGMGPGESGQPPPAC [S1P] | 2.23 |
| RVICRSLPEGMGPGESGQPPPAC [S1R] | 1.39 |
| SVLCRSLPEGMGPGESGQPPPAC [I3L] | 1.6 |
| SVMCRSLPEGMGPGESGQPPPAC [I3M] | 1.43 |
| SVFCRSLPEGMGPGESGQPPPAC [I3F] | 1.66 |
| SVRCRSLPEGMGPGESGQPPPAC [I3R] | 2.64 |
| SVPCRSLPEGMGPGESGQPPPAC [I3P] | 2.4 |
| SVQCRSLPEGMGPGESGQPPPAC [I3Q] | 1.49 |
| SVNCRSLPEGMGPGESGQPPPAC [I3N] | 2.23 |
| SVECRSLPEGMGPGESGQPPPAC [I3E] | 2.88 |
| SVHCRSLPEGMGPGESGQPPPAC [I3H] | 3.61 |

| Variant | protein stability index |
| --- | --- |
| SVKCRSLPEGMGPGESGQPPPAC [I3K] | 1.65 |
| SVSCRSLPEGMGPGESGQPPPAC [I3S] | 2.51 |
| SVACRSLPEGMGPGESGQPPPAC [I3A] | 2.19 |
| SFICRSLPEGMGPGESGQPPPAC [V2F] | 2.78 |
| SSICRSLPEGMGPGESGQPPPAC [V2S] | 2.67 |
| STICRSLPEGMGPGESGQPPPAC [V2T] | 2.9 |
| SHICRSLPEGMGPGESGQPPPAC [V2H] | 1.78 |
| SEICRSLPEGMGPGESGQPPPAC [V2E] | 2.4 |
| SMICRSLPEGMGPGESGQPPPAC [V2M] | 2.57 |
| SDICRSLPEGMGPGESGQPPPAC [V2D] | 2.05 |
| SQICRSLPEGMGPGESGQPPPAC [V2Q] | 2.26 |
| SGICRSLPEGMGPGESGQPPPAC [V2G] | 2.08 |
| SNICRSLPEGMGPGESGQPPPAC [V2N] | 2.41 |
| SCICRSLPEGMGPGESGQPPPAC [V2C] | 1.73 |
| SIICRSLPEGMGPGESGQPPPAC [V2I] | 2.77 |
| SAICRSLPEGMGPGESGQPPPAC [V2A] | 2.4 |
| SKICRSLPEGMGPGESGQPPPAC [V2K] | 2.14 |
| SPICRSLPEGMGPGESGQPPPAC [V2P] | 2.31 |

Variants of: B2
Assay: as above
Conditions: c terminus: a fixed tail appended

| Variant | protein stability index |
| --- | --- |
| FTSSPSPFSSSSPENVEDSLLDSP [G20L] | 2.07 |
| FTSSPSPFSSSSPENVEDSMLDSP [G20M] | 2.07 |
| FTSSPSPFSSSSPENVEDSALDSP [G20A] | 1.88 |
| FTSSPSPFSSSSPENVEDSELDSP [G20E] | 2.04 |
| FTSSPSPFSSSSPENVEDSILDSP [G20I] | 1.97 |
| FTSSPSPFSSSSPENVEDSCLDSP [G20C] | 2.31 |
| FTSSPSPFSSSSPENVEDSHLDSP [G20H] | 2.43 |
| FTSSPSPFSSSSPENVEDSFLDSP [G20F] | 2.32 |
| FTSSPSPFSSSSPENVEDSTLDSP [G20T] | 3.02 |
| FTSSPSPFSSSSPENVEDSDLDSP [G20D] | 1.88 |
| FTSSPSPFSSSSPENVEDSVLDSP [G20V] | 1.64 |
| FTSSPSPFSSSSPENVEDSQLDSP [G20Q] | 1.99 |
| FTSSPSPFSSSSPENVEDSYLDSP [G20Y] | 2.33 |
| FTSSPSPFSSSSPENVEDSPLDSP [G20P] | 1.86 |
| FTSSPSPFSSSSPENVEDSNLDSP [G20N] | 1.98 |
| FTSSPSPFSSSSPENVEDSRLDSP [G20R] | 1.91 |
| FTSSPSPFSSSSPENVEDSSLDSP [G20S] | 2.09 |
| FTSSPSPFSSSSPENVEDSWLDSP [G20W] | 1.56 |
| FTSSPSPFSSSSPENVEDSKLDSP [G20K] | 2.87 |

| Variant | protein stability index |
| --- | --- |
| FTSSPSPFSSSSPENVEDSGQDSP [L21Q] | 2.03 |
| FTSSPSPFSSSSPENVEDSGGDSP [L21G] | 2.12 |
| FTSSPSPFSSSSPENVEDSGFDSP [L21F] | 2.07 |
| FTSSPSPFSSSSPENVEDSGKDSP [L21K] | 2.02 |
| FTSSPSPFSSSSPENVEDSGEDSP [L21E] | 1.95 |
| FTSSPSPFSSSSPENVEDSGWDSP [L21W] | 1.7 |
| FTSSPSPFSSSSPENVEDSGDDSP [L21D] | 2.06 |
| FTSSPSPFSSSSPENVEDSGNDSP [L21N] | 2.28 |
| FTSSPSPFSSSSPENVEDSGHDSP [L21H] | 2.27 |
| FTSSPSPFSSSSPENVEDSGIDSP [L21I] | 2.87 |
| FTSSPSPFSSSSPENVEDSGTDSP [L21T] | 2.52 |
| FTSSPSPFSSSSPENVEDSGMDSP [L21M] | 2.84 |
| FTSSPSPFSSSSPENVEDSGADSP [L21A] | 1.49 |
| FTSSPSPFSSSSPENVEDSGRDSP [L21R] | 2.21 |
| FTSSPSPFSSSSPENVEDSGSDSP [L21S] | 1.81 |
| FTSSPSPFSSSSPENVEDSGVDSP [L21V] | 2.01 |
| FTSSPSPFSSSSPENVEDSGYDSP [L21Y] | 2.19 |
| FTSSPSPFSSSSPENVEDSGCDSP [L21C] | 2.23 |
| FTSSPSPFSSSSPENVEDSGPDSP [L21P] | 2.14 |

| Variant | protein stability index |
| --- | --- |
| FTSSPSPFSSSSPENVEDVGLDSP [S19V] | 2 |
| FTSSPSPFSSSSPENVEDWGLDSP [S19W] | 1.57 |
| FTSSPSPFSSSSPENVEDQGLDSP [S19Q] | 2.21 |
| FTSSPSPFSSSSPENVEDLGLDSP [S19L] | 2.32 |
| FTSSPSPFSSSSPENVEDCGLDSP [S19C] | 2.22 |
| FTSSPSPFSSSSPENVEDGGLDSP [S19G] | 1.64 |
| FTSSPSPFSSSSPENVEDMGLDSP [S19M] | 1.5 |
| FTSSPSPFSSSSPENVEDEGLDSP [S19E] | 1.81 |
| FTSSPSPFSSSSPENVEDHGLDSP [S19H] | 2.46 |
| FTSSPSPFSSSSPENVEDFGLDSP [S19F] | 2.24 |
| FTSSPSPFSSSSPENVEDAGLDSP [S19A] | 2.04 |
| FTSSPSPFSSSSPENVEDTGLDSP [S19T] | 2.34 |
| FTSSPSPFSSSSPENVEDPGLDSP [S19P] | 2.26 |
| FTSSPSPFSSSSPENVEDRGLDSP [S19R] | 2.39 |
| FTSSPSPFSSSSPENVEDIGLDSP [S19I] | 2.27 |
| FTSSPSPFSSSSPENVEDDGLDSP [S19D] | 1.9 |
| FTSSPSPFSSSSPENVEDYGLDSP [S19Y] | 2.78 |
| FTSSPSPFSSSSPENVEDKGLDSP [S19K] | 1.95 |
| FTSSPSPFSSSSPENVEDNGLDSP [S19N] | 2.06 |

— the supplement of paper PMC10567573
